Source: the nanobody polyreactivity screen of Harvey et al. (2022)

Assay: yeast display, Sf9 membrane polyspecificity reagent, FACS + sequencing; frameworks hold sequencing errors
Method in brief: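 Genes from sorted yeast were amplified by colony PCR, read by MiSeq 2 × 250 sequencing and filtered on CDR length. These cells carried a synthetic nanobody library in Saccharomyces cerevisiae BJ5465 and were sorted by FACS into low and high (top ~1%) gates on anti-HA and streptavidin fluorescence. Polyreactivity is labelled according to the gate of origin.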

Sequence | polyreactivity (PSR sort gate)
QVQLVESGGGLVQAGGSLRLSCAASGFIFGKYAMGWYRQAPGKEREFVAAITGNGGSTYYADSVKGRFTISRDNAKNTVYLQMNSLKPEDTAVYYCNADRGYRRRSGMDYWGQGTQVTVSS | low polyreactivity
QVQLVESGGGLVQAGGSLRLSCAASGFIFGKYAMGWYRQAPGKEREVVAAITSGGSTYYADSVKGRFTISRDNAKNTVYLQMNSLKPEDTAVYYCAVPFTFWWSSYRYDYWGQGTQVTVSS | high polyreactivity
QVQLVESGGGLVQAGGSLRLSCAASGFIFGLYAMGWYRQAPGKERELVATISWDGGSTYYADSVKGRFTISRDNAKNTVYLQMNSLKPEDTAVYYCNARYIGGYGYWGQGTQVTVSS | low polyreactivity
QVQLVESGGGLVQAGGSLRLSCAASGFIFGLYAMGWYRQAPGKERELVATISWDGGSTYYADSVKGRFTISRDYAKNTVYLQMNSLKPEDTAVYYCAATYLYRSPYVPMDYWGQGTQVTVSS | low polyreactivity
QVQLVESGGGLVQAGGSLRLSCAASGFIFGNNDMGWYRQAPGKERELVAGITWSGSSTYYADSVKGRFTISRDNAKNTVYLQMNSLKPEDTAVYYCNRVFTWRYGYRYEYWGQGTQVTVSS | high polyreactivity
QVQLVESGGGLVQAGGSLRLSCAASGFIFGNYAMGWYRQAPGKERELVATITRRGGRTYYADSVKGRFTISRDNAKNTVYLQMNSLKPEDSAVYYCNARPSRWAREGYWGQGTQVTVSS | high polyreactivity
QVQLVESGGGLVQAGGSLRLSCAASGFIFGNYDMEWYRPAPGKERELVAAITNGGGNTYYADSVKGRITISRDNAKNTVYLQMNSLKPEDTAVSYCHPLRYYYWGQGTQVTVSS | high polyreactivity
QVQLVESGGGLVQAGGSLRLSCAASGFIFGNYVMGWYRPAPGKERELVAAISESGSRTYYADSVKGRFTISRDNAKNTVYLQMNSLKPEDTAVYYCAAALFSYYGEYDYWGQGTQVTVSS | low polyreactivity
QVQLVESGGGLVQAGGSLRLSCAASGFIFGQYAMGWYRQAPGKERELVAAISRSGGSTYYADSVKGRFTISRDNAKNTVYLQMNSLKPEDTAVYYCNRRDRGDSYRLDYWGQGTQVTVSS | high polyreactivity
QVQLVESGGGLVQAGGSLRLSCAASGFIFGRNAMGWYRQAPGKERELVAAINWRGGSTYYADSVKGRCTISRDNAKNTVYLQMNSLKPEDTAVYYCAARGPYRYGYDYWGQGTQVTVSS | high polyreactivity
QVQLVESGGGLVQAGGSLRLSCAASGFIFGRYAMGWYRQAPGKERELVAAISRGGGSTRYADSVKGRFTISRDNAKNTVYLQMKSLKPEDTAVYYCAAYRYWGRTSYSYDYWGQGTQVTVSS | high polyreactivity
QVQLVESGGGLVQAGGSLRLSCAASGFIFGRYAMGWYRQAPGKERELVAAISSGDDTDYADSVKGRFTISRDNAKNTVYLQMNSLKPEDTAVSYCARSRFWSPVIYRRTIEFDSWGQGTQVTVSS | low polyreactivity
QVQLVESGGGLVQAGGSLRLSCAASGFIFGRYAMGWYRQSPGKERELVAVISKRGDNTYYADSVKGRFTISRDNAKNTVYLQMNSLKPEDTAVYYCNVKRYGGRSDYWGQGTQVTVSS | high polyreactivity
QVQLVESGGGLVQAGGSLRLSCAASGFIFGRYTMGWYRQAPGKERELVAAITYSGNTYYADSVKGRFTISRDKAKTTVYVQMNSLKPEDTALYYCNAYGANFRAFRNAYKYWGQGTQVTVSS | high polyreactivity
QVQLVESGGGLVQAGGSLRLSCAASGFIFGSYALGWDRQAPGKEWELVAAINYDGGSTYYADSVKGRFTISRDHAKNTVYLQMNSLKPEDTAVYYCAADLYYTHMDYWGQGTQVTVSS | low polyreactivity
QVQLVESGGGLVQAGGSLRLSCAASGFIFGSYAMGWYRQAPGKERELVAAISTGGGSTYYADSVKGRFTISRDNAKNTVYLQMNSLKPEDTAVYYCATDYRVTVWHPYQWYIYGYWGQGTQVTVSS | low polyreactivity
QVQLVESGGGLVQAGGSLRLSCAASGFIFGSYTMGWYRQAPGKERELVAAISWSSGCSTYYADSVKGRFTISRDNAKNTVYLQMNSLKPEDTAVYYCAARHRGAGRNDFYYWGQGTQVTVSS | high polyreactivity
QVQLVESGGGLVQAGGSLRLSCAASGFIFGTYAMGWYRQAPGNERELVAAISVGGGSTYYADSVKGRFTISRDNAKNTVYLQMNSLKPEDTAVYYCAAVQLYQKHQITYVAHEYWGQGTQVTVSS | low polyreactivity
QVQLVESGGGLVQAGGSLRLSCAASGFIFGVNAMGWYRQAPGKEPELVAAINGGASTYYADSVKGRFTISRDNAKNTVYLQMNSLKPEDTAVYYCAAVFYDYRGRLYPNFGLYYYWGQGTQVTVSS | high polyreactivity
QVQLVESGGGLVQAGGSLRLSCAASGFIFGVNAMVWYRQAPGKERELVAAITRNGGSTYYADSVKGRFTISRDNAKNTVYLQMKSLKPEDTAVYYCAKYVRRAPSTFDVDYWGQGTQVTVSS | high polyreactivity
QVQLVESGGGLVQAGGSLRLSCAASGFIFGVYAMGWYRQAPGKERELVAAISRSGGSTYYADSVKGRFTISRDNAKNTVYLQMNSLKPEDTAVYYCATQVSWYGKGYYYWGQGTQVTVSS | high polyreactivity
QVQLVESGGGLVQAGGSLRLSCAASGFIFGWNAMGWYREAPGKERELVAALTRTGSTYYADSVKGRFTISRDNAKNTVYLQMNSLKPEDTAVYYCAASYGSRSTRTEGYWGQGTQVTVSS | low polyreactivity

Sequence | polyreactivity (PSR sort gate)
QVQLVESGGGLVQAGGSLRLSCAASGFIFGYNAMGGYRLAPGKERELVAAISSYGGSPYYADSVKGRFTISRDNAKNTVYLQMNTLKPEDTAVYYWAARPVALRKYDYWGQGTQLTVSS | low polyreactivity
QVQLVESGGGLVQAGGSLRLSCAASGFIFGYNAMGWYRQAAGKERELVAAISYSGGGTYYADSVKGRFTISRDNAKNTVYLQMNSLKPEDTAVYYCAARSWGRRSYDYWGQGTQVTVSS | high polyreactivity
QVQLVESGGGLVQAGGSLRLSCAASGFIFGYNAMGWYRQAPGIERELVAAITASGGSTYYADSVKGRFTISLDNAKNTVYLQLNSLIPEDTAVYYCATVLRKNGERGNRLYYWGQGTQVTVSS | high polyreactivity
QVQLVESGGGLVQAGGSLRLSCAASGFIFGYNAMGWYRQAPGKERELVASITINDGSTYYADSVKGRFTISRDNAKNTVYLQMNCLKPEDTAVYYCAAGGWYSLDILPYRYDYWGQGTQVTVSS | low polyreactivity
QVQLVESGGGLVQAGGSLRLSCAASGFIFGYNGMGWYRQAPGKERELVAGITYSDGSTYYADSVKGRFTISRDNAKNTVYLQMNSLKPEDTAVYYCAVEVGYTDSPYSYDYWGQGTQVTVSS | low polyreactivity
QVQLVESGGGLVQAGGSLRLSCAASGFIFGYYAMGWYRQAPGKERELVAAINRSGSTYYADSVKGPFTISRDNAKNTVYLQMNSLKPEDTAVYYCKLRHYVGLSKGDYWGQGTQVTVSS | high polyreactivity
QVQLVESGGGLVQAGGSLRLSCAASGFIFGYYAMGWYRQAPGKERELVAAISWSGGSTYYADSVKGRFTISRDKAKNTVYLQMNSLKPEDTAVYYCATASPSTRYGRLGDYWGQGTQVTVSS | low polyreactivity
QVQLVESGGGLVQAGGSLRLSCAASGFIFGYYAMGWYRQAPGKERELVAAISWSGGSTYYADSVKGRFTISRDNAKNTVYLQMNSLKPEDTAVYYCATASPSTRYGRLGDYWGQGTQVTVSS | low polyreactivity
QVQLVESGGGLVQAGGSLRLSCAASGFIFGYYAMGWYRQAPGKERELVAAITGGGSTYYADSVKGRFTISRDNAKNTVYLQMNSLKPEDTAVYDCNADYGDGEYDYWGQGTQVTVSS | low polyreactivity
QVQLVESGGGLVQAGGSLRLSCAASGFIFHDNAMGWYRQAPGKERELVAAIRSTGSTNYADSVKGRFTISRDNAKNTVYLQMNSLKPEDTAVYYCNAGKYQSDTPSLDPTEYPAFYYWGQGTQVTVSS | low polyreactivity
QVQLVESGGGLVQAGGSLRLSCAASGFIFHLYGMGWYRQAPGKERELVAAISSGGRTYYADSVKGRFTISRDNAKNTVYLQMNSLKPEDTAVYYCAVYVAYLYSYYYWGQGTQVTVSS | low polyreactivity
QVQLVESGGGLVQAGGSLRLSCAASGFIFHNYVMGWYRQAPGKERELVAVISGSGGSTYYADSVKGRFTISRDNAKNTVYLQMNSLKPEDTAVYYCAADNVYGYDYWGQGTQVTVSS | low polyreactivity
QVQLVESGGGLVQAGGSLRLSCAASGFIFHRYAMGWYRQAPGKERELVAAISSSGGSTYYADSVKGRFTISRDNAKNTVYLQMNSLKPEDTAVYYCAAEEEEFIYDYWGQGTQVTVSS | high polyreactivity
QVQLVESGGGLVQAGGSLRLSCAASGFIFHSYAMRWYRQAPGKERELVAAITHSGGRTYYADCVKGRFTISRDNAKNTVYLQMNSLKPEDTAVYYCAAVTRRHEYDYWGQGSQVTVSS | high polyreactivity
QVQLVESGGGLVQAGGSLRLSCAASGFIFHTYAMGWYRQAPGKEREFVAAISGGTSSTYYADSVKGRFTISRDNAKNTVYLQMNSLKPEDTAVYYCAARSRRGGYPRYYYWGQGTQVTVSS | high polyreactivity
QVQLVESGGGLVQAGGSLRLSCAASGFIFHWNAMGWYRQAPGKERELVAAITWRGTNTYYADSVKGRFTISRDNAKNTVYLQMNSLKPEDTAVYYCAGTRNPWPTSFDYWGQGTQVTVSS | low polyreactivity
QVQLVESGGGLVQAGGSLRLSCAASGFIFIHNAMGWYRQAPGKERELVAAISYSGGSTYYADSVKGRFTISRDNAKNTVYLQMNSLKPEDTAVYYCNRVQYYRADRMDYWGQGTQVTVSS | low polyreactivity
QVQLVESGGGLVQAGGSLRLSCAASGFIFIQYAMGWYRQAPGKERELVAAISRSGGSTSYADSVKGRFTISRDNAKNTVYLQMNSLKPEDTAVYYCNRYYGSSGHGRPNEKYGYWGQGTQVTVSS | low polyreactivity
QVQLVESGGGLVQAGGSLRLSCAASGFIFITVNAMGWYRQAPGKEREFVAAITRSGTGTYYADSVKGRFTISRDNAKNTVYLQMNSLKPEDTAVYYCAADATSTGAYDYWGQGTQVTVSS | low polyreactivity
QVQLVESGGGLVQAGGSLRLSCAASGFIFKGNAMGWYRQAPGKERELVAAITNRGGGTYYADSVKGRFTISRDNAKNTVYLQMNSLKPEDTAVYYCAKAYTRPFHPYDYWGQGTQVTVSS | high polyreactivity
QVQLVESGGGLVQAGGSLRLSCAASGFIFKHNALGWYRQAPGKERELVAAISWSGDSTYYADSVKGRFTISRDNAKNTVYLQMNSLKPEDTAVYYCAAVRALRKVRDYYYWGQGTQVTVSS | high polyreactivity
